Measured values published in US20110306057A1 (Dana-Farber, published 2011).

T1: PP2A regulatory subunit B55α (human (endogenous in human HEK TER …, UniProt P63151 2-447, limits assumed))
T1 construct: Endogenous protein found in anti-FLAG immune complexes by immunoblot
T1 sequence (looked up): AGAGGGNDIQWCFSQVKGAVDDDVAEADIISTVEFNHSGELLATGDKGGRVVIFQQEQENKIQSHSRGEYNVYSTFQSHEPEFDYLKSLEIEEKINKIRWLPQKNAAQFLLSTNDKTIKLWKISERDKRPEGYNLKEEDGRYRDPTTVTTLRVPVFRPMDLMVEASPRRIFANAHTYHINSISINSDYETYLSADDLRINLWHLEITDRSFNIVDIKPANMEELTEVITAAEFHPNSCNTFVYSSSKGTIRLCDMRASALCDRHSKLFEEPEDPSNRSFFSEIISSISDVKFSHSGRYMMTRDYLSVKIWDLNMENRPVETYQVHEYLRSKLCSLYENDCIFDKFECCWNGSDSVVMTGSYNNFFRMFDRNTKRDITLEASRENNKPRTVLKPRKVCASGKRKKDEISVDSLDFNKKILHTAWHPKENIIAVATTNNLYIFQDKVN


Columns and labels:
[1] = biological target: T2, PP2A regulatory subunit B56ε (human (endogenous in human HEK TER …, UniProt Q16537 2-467, limits assumed)); assay: anti-FLAG co-IP from HEK TER cells, immunoblot, densitometry; +++ >90%, ++ 50-90%, + <50%
T2 construct: Endogenous protein found in anti-FLAG immune complexes by immunoblot

[2] = biological target: T1, PP2A regulatory subunit B55α; assay: as above
[3] = biological target: PP2A regulatory subunit B56γ (human (endogenous in human HEK TER …, UniProt Q13362 1-524)); assay: anti-FLAG co-IP from HEK TER cells, immunoblot, densitometry
Sequence of PP2A regulatory subunit B56γ (human (Q13362 whole entry): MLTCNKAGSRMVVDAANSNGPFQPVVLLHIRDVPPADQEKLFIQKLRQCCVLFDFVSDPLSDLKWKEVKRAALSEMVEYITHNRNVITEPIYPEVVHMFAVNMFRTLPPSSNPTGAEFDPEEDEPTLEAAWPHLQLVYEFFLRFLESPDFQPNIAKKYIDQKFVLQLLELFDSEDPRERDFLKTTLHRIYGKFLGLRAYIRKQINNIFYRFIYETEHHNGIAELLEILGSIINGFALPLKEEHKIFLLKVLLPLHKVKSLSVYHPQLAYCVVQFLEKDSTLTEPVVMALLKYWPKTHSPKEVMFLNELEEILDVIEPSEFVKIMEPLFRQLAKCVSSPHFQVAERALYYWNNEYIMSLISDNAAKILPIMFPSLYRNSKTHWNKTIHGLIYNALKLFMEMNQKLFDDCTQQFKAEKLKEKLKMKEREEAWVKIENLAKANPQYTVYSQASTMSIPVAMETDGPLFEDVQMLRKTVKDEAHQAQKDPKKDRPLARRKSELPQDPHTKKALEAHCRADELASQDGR

T2 sequence (Q16537 2-467 limits assumed): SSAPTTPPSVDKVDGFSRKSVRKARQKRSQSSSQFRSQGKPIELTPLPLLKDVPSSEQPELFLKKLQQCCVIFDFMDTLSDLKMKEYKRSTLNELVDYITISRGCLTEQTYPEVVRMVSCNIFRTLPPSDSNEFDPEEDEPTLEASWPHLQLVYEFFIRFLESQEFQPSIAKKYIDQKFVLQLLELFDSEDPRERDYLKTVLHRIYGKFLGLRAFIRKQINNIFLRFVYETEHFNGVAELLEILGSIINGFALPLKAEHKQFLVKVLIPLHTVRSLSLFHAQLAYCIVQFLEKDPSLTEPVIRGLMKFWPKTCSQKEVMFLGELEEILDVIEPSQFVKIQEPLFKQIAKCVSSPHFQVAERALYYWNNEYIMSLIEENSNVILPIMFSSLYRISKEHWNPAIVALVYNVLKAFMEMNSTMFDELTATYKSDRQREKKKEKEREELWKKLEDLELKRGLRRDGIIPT

| binding level (percent, co-immunoprecipitation densitometry) [1] [%] | binding level (percent, co-immunoprecipitation densitometry) [2] [%] | binding result [3] | Binder |
| --- | --- | --- | --- |
| > 90 | < 50 | no binding | cancer-derived FLAG-tagged PP2A Aβ mutant L101P (other, UniProt P30154 1-601, looked up, not shown: small tags and cut ends, Overexpressed in HEK TER cells) MAGASELGTGPGAAGGDGDDSLYPIAVLIDELRNEDVQLRLNSIKKLSTIALALGVERTRSELLPFLTDTIYDEDEVLLALAEQLGNFTGLVGGPDFAHCPLPPLENLATVEETVVRDKAVESLRQISQEHTPVALEAYFVPLVKRLASGDWFTSRTSACGLFSVCYPRASNAVKAEIRQQFRSLCSDDTPMVRRAAASKLGEFAKVLELDSVKSEIVPLFTSLASDEQDSVRLLAVEACVSIAQLLSQDDLETLVMPTLRQAAEDKSWRVRYMVADRFSELQKAMGPKITLNDLIPAFQNLLKDCEAEVRAAAAHKVKELGENLPIEDRETIIMNQILPYIKELVSDTNQHVKSALASVIMGLSTILGKENTIEHLLPLFLAQLKDECPDVRLNIISNLDCVNEVIGIRQLSQSLLPAIVELAEDAKWRVRLAIIEYMPLLAGQLGVEFFDEKLNSLCMAWLVDHVYAIREAATNNLMKLVQKFGTEWAQNTIVPKVLVMANDPNYLHRMTTLFCINALSEACGQEITTKQMLPIVLKMAGDQVANVRFNVAKSLQKIGPILDTNALQGEVKPVLQKLGQDEDMDVKYFAQEAISVLALA |
| < 50 | – | no binding | cancer-derived FLAG-tagged PP2A Aβ mutant L101P/V448A (other, UniProt P30154 1-601, looked up, not shown: small tags and cut ends, Overexpressed in HEK TER cells) MAGASELGTGPGAAGGDGDDSLYPIAVLIDELRNEDVQLRLNSIKKLSTIALALGVERTRSELLPFLTDTIYDEDEVLLALAEQLGNFTGLVGGPDFAHCPLPPLENLATVEETVVRDKAVESLRQISQEHTPVALEAYFVPLVKRLASGDWFTSRTSACGLFSVCYPRASNAVKAEIRQQFRSLCSDDTPMVRRAAASKLGEFAKVLELDSVKSEIVPLFTSLASDEQDSVRLLAVEACVSIAQLLSQDDLETLVMPTLRQAAEDKSWRVRYMVADRFSELQKAMGPKITLNDLIPAFQNLLKDCEAEVRAAAAHKVKELGENLPIEDRETIIMNQILPYIKELVSDTNQHVKSALASVIMGLSTILGKENTIEHLLPLFLAQLKDECPDVRLNIISNLDCVNEVIGIRQLSQSLLPAIVELAEDAKWRVRLAIIEYMPLLAGQLGAEFFDEKLNSLCMAWLVDHVYAIREAATNNLMKLVQKFGTEWAQNTIVPKVLVMANDPNYLHRMTTLFCINALSEACGQEITTKQMLPIVLKMAGDQVANVRFNVAKSLQKIGPILDTNALQGEVKPVLQKLGQDEDMDVKYFAQEAISVLALA |
| – | – | no binding | cancer-derived FLAG-tagged PP2A Aβ mutant ΔE344-E388 (other, Deletion of exon 9, in-frame deletion of 45 amino acids; Overexpressed in HEK TER cells; also called D344-388) MDYKDDDDKAGASELGTGPGAAGGDGDDSLYPIAVLIDELRNEDVQLRLNSIKKLSTIALALGVERTRSELLPFLTDTIYDEDEVLLALAEQLGNFTGLVGGPDFAHCLLPPLENLATVEETVVRDKAVESLRQISQEHTPVALEAYFVPLVKRLASGDWFTSRTSACGLFSVCYPRASNAVKAEIRQQFRSLCSDDTPMVRRAAASKLGEFAKVLELDSVKSEIVPLFTSLASDEQDSVRLLAVEACVSIAQLLSQDDLETLVMPTLRQAAEDKSWRVRYMVADRFSELQKAMGPKITLNDLIPAFQNLLKDCEAEVRAAAAHKVKELGENLPIEDRETIIMNQILPYIKCPDVRLNIISNLDCVNEVIGIRQLSQSLLPAIVELAEDAKWRVRLAIIEYMPLLAGQLGVEFFDEKLNSLCMAWLVDHVYAIREAATNNLMKLVQKFGTEWAQNTIVPKVLVMANDPNYLHRMTTLFCINALSEACGQEITTKQMLPIVLKMAGDQVANVRFNVAKSLQKIGPILDTNALQGEVKPVLQKLGQDEDMDVKYFAQEAISVLALA |
